From article PMC9512828 come the findings set out here.

To fix the notation:
B1: PTH1R-WT coupled to a C-terminal HaloTag (parathyroid hormone 1 receptor) [not stated] / β-arrestin2 WT C-terminally fused to Nanoluciferase [not stated] (parent)
chain 1: MGEKPGTRVFKKSSPNCKLTVYLGKRDFVDHLDKVDPVDGVVLVDPDYLKDRKVFVTLTCAFRYGREDLDVLGLSFRKDLFIANYQAFPPTPNPPRPPTRLQERLLRKLGQHAHPFFFTIPQNLPCSVTLQPGPEDTGKACGVDFEIRAFCAKSLEEKSHKRNSVRLVIRKVQFAPEKPGPQPSAETTRHFLMSDRSLHLEASLDKELYYHGEPLNVNVHVTNNSTKTVKKIKVSVRQYADICLFSTAQYKCPVAQVEQDDQVSPSSTFCKVYTITPLLSNNREKRGLALDGKLKHEDTNLASSTIVKEGANKEVLGILVSYRVKVKLVVSRGGDVSVELPFVLMHPKPHDHIALPRPQSAATHPPTLLPSAVPETDAPVDTNLIEFETNYATDDDIVFEDFARLRLKGLKDEDYDDQFC
chain 2: DADDVMTKEEQIFLLHRAQAQCEKRLKEVLQRPASIMESDKGWTSASTSGKPRKDKASGKLYPESEEDKEAPTGSRYRGRPCLPEWDHILCWPLGAPGEVVAVPCPDYIYDFNHKGHAYRRCDRNGSWELVPGHNRTWANYSECVKFLTNETREREVFDRLGMIYTVGYSVSLASLTVAVLILAYFRRLHCTRNYIHMHLFLSFMLRAVSIFVKDAVLYSGATLDEAERLTEEELRAIAQAPPPPATAAAGYAGCRVAVTFFLYFLATNYYWILVEGLYLHSLIFMAFFSEKKYLWGFTVFGWGLPAVFVAVWVSVRATLANTGCWDLSSGNKKWIIQVPILASIVLNFILFINIVRVLATKLRETNAGRCDTRQQYRKLLKSTLVLMPLFGVHYIVFMATPYTEVSGTLWQVQMHYEMLFNSFQGFFVAIIYCFCNGEVQAEIKKSWSRWTLALDFKRKARSGSSSYSYGPMVSHTSVTNVGPRVGLGLPLSPRLLPTATTNGHPQLPGHAKPGTPALETLETTPPAMAAPKDDGFLNGSCSGLDEEASGPERPPALLQEEWETVM
B2: PTH1R-WT coupled to a C-terminal HaloTag (parathyroid hormone 1 receptor) [not stated] / β-arrestin1-dFLR (finger-loop region Y63 to K77 deleted) C-terminally fused to Nanoluciferase [not stated] (parent)
chain 1: MGDKGTRVFKKASPNGKLTVYLGKRDFVDHIDLVDPVDGVVLVDPEYLKERRVYVTLTCAFRDLFVANVQSFPPAPEDKKPLTRLQERLIKKLGEHAYPFTFEIPPNLPCSVTLQPGPEDTGKACGVDYEVKAFCAENLEEKIHKRNSVRLVIRKVQYAPERPGPQPTAETTRQFLMSDKPLHLEASLDKEIYYHGEPISVNVHVTNNTNKTVKKIKISVRQYADICLFNTAQYKCPVAMEEADDTVAPSSTFCKVYTLTPFLANNREKRGLALDGKLKHEDTNLASSTLLREGANREILGIIVSYKVKVKLVVSRGGLLGDLASSDVAVELPFTLMHPKPKEEPPHREVPENETPVDTNLIELDTNDDDIVFEDFARQRLKGMKDDKEEEEDGTGSPQLNNR
chain 2: B1 chain 2
B3: PTH1R-WT coupled to a C-terminal HaloTag (parathyroid hormone 1 receptor) [not stated] / β-arrestin2-dFLR (finger-loop region Y64 to K78 deleted) C-terminally fused to Nanoluciferase [not stated] (parent)
chain 1: MGEKPGTRVFKKSSPNCKLTVYLGKRDFVDHLDKVDPVDGVVLVDPDYLKDRKVFVTLTCAFRDLFIANYQAFPPTPNPPRPPTRLQERLLRKLGQHAHPFFFTIPQNLPCSVTLQPGPEDTGKACGVDFEIRAFCAKSLEEKSHKRNSVRLVIRKVQFAPEKPGPQPSAETTRHFLMSDRSLHLEASLDKELYYHGEPLNVNVHVTNNSTKTVKKIKVSVRQYADICLFSTAQYKCPVAQVEQDDQVSPSSTFCKVYTITPLLSNNREKRGLALDGKLKHEDTNLASSTIVKEGANKEVLGILVSYRVKVKLVVSRGGDVSVELPFVLMHPKPHDHIALPRPQSAATHPPTLLPSAVPETDAPVDTNLIEFETNYATDDDIVFEDFARLRLKGLKDEDYDDQFC
chain 2: B1 chain 2

In the first assay the parent is B1. In words: NanoBRET recruitment assay in living cells. The settings on record: with β-arrestin2 WT C-terminally fused to Nanoluciferase; HEK-WT + EV; point at the highest PTH(1-34) concentration (about 3 µM); parent: 7.5; read off a plot.
Turning to chain 2 S463A S465A S466A S467A S469A, the response worked out at 6 fold change.
The same measure, in the same setting: the value for chain 2 S475A T477A S478A T480A was 3.4 fold change.

Staying with this assay, now noted: with β-arrestin2 WT C-terminally fused to Nanoluciferase; HEK-WT cells; point at the highest PTH(1-34) concentration (about 3 µM); parent: 7.3; read off a plot.
For chain 2 S463A S465A S466A S467A S469A, the response came to 6 fold change.
On the same count and under the same terms, the value for chain 2 S475A T477A S478A T480A was 3.4 fold change.

Still in this assay, the particulars now being: with β-arrestin2 WT C-terminally fused to Nanoluciferase; ΔQ-GRK + EV; point at the highest PTH(1-34) concentration (about 3 µM); parent: 1.7; read off a plot.
In the case of chain 2 S463A S465A S466A S467A S469A, the response came out at 1.8 fold change.
The same measure, in the same setting: the value for chain 2 S475A T477A S478A T480A was 1.9 fold change.

The same assay, now with this note: with β-arrestin2 WT C-terminally fused to Nanoluciferase; ΔQ-GRK + GRK2; point at the highest PTH(1-34) concentration (about 3 µM); parent: 5; read off a plot.
As for chain 2 S463A S465A S466A S467A S469A, the response was determined as 4.8 fold change.
Take chain 2 S475A T477A S478A T480A: the response turned out to be 3.2 fold change.

The next assay covers variants of B2. The experiment in a line: NanoBRET recruitment assay in living cells. The note with it: with β-arrestin1-dFLR (finger-loop region Y63 to K77 deleted) C-terminally fused to Nanoluciferase; HEK-WT + EV; point at the highest PTH(1-34) concentration (about 3 µM); partner is β-arrestin1-dFLR; parent: 2.8; read off a plot. (In BRET a luciferase serves as donor, and the signal depends on an acceptor being close.)
In the case of chain 2 S475A T477A S478A T480A, the response was found to be 1.1 fold change.
chain 2 S463A S465A S466A S467A S469A: the response was 2.6 fold change.

Still in this assay, the particulars now being: with β-arrestin1-dFLR (finger-loop region Y63 to K77 deleted) C-terminally fused to Nanoluciferase; ΔQ-GRK + EV; point at the highest PTH(1-34) concentration (about 3 µM); partner is β-arrestin1-dFLR; parent: 1; read off a plot.
As to chain 2 S475A T477A S478A T480A, the response was found to be 1 fold change.
The same measure, in the same setting: the same measure for chain 2 S463A S465A S466A S467A S469A: 1 fold change.

The same assay, now with this note: with β-arrestin1-dFLR (finger-loop region Y63 to K77 deleted) C-terminally fused to Nanoluciferase; ΔQ-GRK + GRK2; point at the highest PTH(1-34) concentration (about 3 µM); partner is β-arrestin1-dFLR; parent: 2.3; read off a plot.
For chain 2 S475A T477A S478A T480A, the response was determined as 1.1 fold change.
Same read-out and setting: the value for chain 2 S463A S465A S466A S467A S469A was 2.1 fold change.

Variants of B3 are the subject of another assay. The experiment in a line: NanoBRET recruitment assay in living cells. The settings on record: with β-arrestin2-dFLR (finger-loop region Y64 to K78 deleted) C-terminally fused to Nanoluciferase; HEK-WT + EV; point at the highest PTH(1-34) concentration (about 3 µM); partner is β-arrestin2-dFLR; parent: 1.4; read off a plot.
As to chain 2 S475A T477A S478A T480A, the response stood at 0.95 fold change.
On the same count and under the same terms, the value for chain 2 S463A S465A S466A S467A S469A was 1.4 fold change.

Staying with this assay, now noted: with β-arrestin2-dFLR (finger-loop region Y64 to K78 deleted) C-terminally fused to Nanoluciferase; ΔQ-GRK + EV; point at the highest PTH(1-34) concentration (about 3 µM); partner is β-arrestin2-dFLR; parent: 1; read off a plot.
Consider chain 2 S475A T477A S478A T480A, for which the response is 0.95 fold change.
On to chain 2 S463A S465A S466A S467A S469A, for which the response stood at 1 fold change.

Staying with this assay, now noted: with β-arrestin2-dFLR (finger-loop region Y64 to K78 deleted) C-terminally fused to Nanoluciferase; ΔQ-GRK + GRK2; point at the highest PTH(1-34) concentration (about 3 µM); partner is β-arrestin2-dFLR; parent: 1.3; read off a plot.
Turning to chain 2 S475A T477A S478A T480A, the response was found to be 0.95 fold change.
With chain 2 S463A S465A S466A S467A S469A, the response was 1.3 fold change.
